Reference: patent publication US20230001009A1, “NANOPARTICLE COMPOSITIONS AND METHODS OF USE” (The Trustees of the University of Pennsylvania, priority 2019, published 2023)

What was measured:
[1] = tested on: neutrophils in LPS-inflamed lungs; conditions: mouse, in vivo, iv
Method: Mice received IV LPS as a model of sepsis/ARDS and were injected five hours later with liposomes (approx. 5 mg/kg). Lung uptake provides a measure of tropism to marginated neutrophils. D5=5 DBCO per protein (IgG) on the tag. D5=5 DBCO per IgG on the tag. D20=20 per IgG on the tag. 25% chol=25% (moles cholesterol/total moles of lipid) of the lipids in liposomes was cholesterol. 25% cholesterol=25% (moles cholesterol/total moles of lipid) of the lipids in liposomes was cholesterol.
Radiolabeled clone 1A8 anti-Ly6G antibody was administered to determine the location and concentration of neutrophils in naïve mice and mice exposed to intravenous (IV) lipopolysaccharides (LPS) (FIG. 1A).
Previous work has traced the neutrophil response to bacteria in the lungs, determining that pulmonary neutrophils pursue and engulf active bacteria following either intravenous infection or infection of the airspace in the lungs. We injected heat-inactivated, oxidized, and fixed E. coli in naïve and IV-LPS-injured mice.
Neither nanoparticle was functionalized with antibodies or other affinity tags. The protein component of each particle was labeled with ^125I for tracing in biodistributions assessed 30 minutes after IV administration of nanoparticles.
Variants of LDNG structure, crosslinked protein NP structure, and NP structure based on charged protein interactions were traced in naïve control and IV-LPS-injured mice. As examples of highly crystalline protein-based NPs based on site-specific protein interactions (rather than site-indiscriminate interactions leading to crosslinker, gelation, or charge-based protein NPs), we also traced viruses in naïve and LPS-treated mice. Adding in liposomes and polystyrene NPs as example nanostructures not based on protein, we undertook a study to evaluate how aspects of NP structure including size, composition, surface chemistry, and crystallinity impact NP affinity for LPS-injured lungs.

ex vivo human lungs = tested on: ex vivo human lungs
Text: Finally, fluorescent or ^125I-labeled LDNGs were infused via arterial catheter into ex vivo human lungs excluded from organ donation due to conditions (including edema and injury) resembling those found in ARDS patients. Immediately prior to LDNG administration, tissue dye was infused via the same catheter to stain regions of the lungs directly perfused by the chosen branch of the pulmonary artery (FIG. 7C). After infusion of LDNGs, phosphate buffered saline infusion rinsed away unbound particles. Perfused regions of the lungs were dissected and divided into ˜1 g segments, divided into regions deemed to have high, medium, or low levels of staining with tissue dye. For lungs receiving fluorescent LDNGs, well-perfused and poorly-perfused regions were selected for sectioning and fluorescent imaging. Fluorescent signal from LDNGs was clearly detectable in sections of well-perfused tissue, but not poorly-perfused tissue (FIG. 7D). In experiments with ^125I-labeled LDNGs, ^131I-labeled ferritin was concurrently infused (i.e. a mix of ferritin and LDNGs was infused) as an internal control particle shown to have no affinity for injured mouse lungs. For LDNGs and ferritin infused into the same lungs via the same branch of the pulmonary artery, LDNGs retained in the lungs at 52.15% initial dose and ferritin retained at 9.27% initial dose (FIG. 7E). […]

| Substance | Lung uptake, percent of initial dose [1] [% initial dose] | Retained in the lungs (ex vivo human lungs) [% initial dose] | LPS:naïve lung uptake ratio [1] |
| --- | --- | --- | --- |
| bovine albumin: isolated radiolabeled protein | 1.38 | – | – |
| ferritin | 0.68 | 9.27 | 1.15 |
| lysozyme: isolated radiolabeled protein | 1.34 | – | – |
| transferrin: isolated radiolabeled protein | 1.45 | – | – |
